From PMC11218954 (PLOS ONE, 2024)
Several values for one entry are separate records, joined by “and”; a condition that tells them apart may be missing. Identical values can stand only once.

Assays:
[1] = target: T1, recombinant F1 antigen of Y. pestis, monomer enriched (Yersinia pestis, strain , UniProt P26948); assay: SPR; conditions: both partners purified
T1 construct: source: expressed in E. coli; BEI NR-44223, monomer enriched

[2] = target: T2, soluble recombinant F1 antigen, monomer-enriched (Yersinia pestis, strain , UniProt P26948); assay: SPR; conditions: both partners purified
T2 construct: source: bought: BEI Resources NR-44223, expressed in E. coli, monomer enriched

Binder | Kd [1] | Kd [2]
αF1Ig AM2 (antibody, V domains shown, also called aF1Ig AM2; source: HEK293 cells, produced by ATUM; purified IgG) VH: QVQLVESGGGLVKPGGSLRLSCAASGFTFSDYYMSWIRQAPGKGLEWVSYISGSGSIIYYADSVKGRFTISRDNAKNSLYLQMNSLRAEDTAVYYCAKEIRKHDAFDIWGQGTMVTVSS VL: DIRMTQSPSSLSASVGDRVTITCRASRSISGYLNWYQQKPGKAPKLLIYATSSLQSGVPSRFSGSGSGTDFTLTISSLQPEDFATYYCQQSYSTPSSFGQGTKVDIK | 2.4 nM and 2.3 nM and 1.2 nM | –
αF1Ig 8 (antibody, V domains shown, also called aF1Ig 8; aF1_8; source: HEK293 cells, produced by ATUM; purified IgG) VH: QVQLQQWGAGLLKPSETLSLTCAVYGGSFSGYYWSWIRQPPGKGLEWIGEINHSGNTNYNPSLKSRVTISVDTSKNQFSLQLNSVTPEDTAVYYCARTRGYFDLWGRGTLVTVSS VL: QPVLTQSPSVSVSPGQTASITCSGDKLGDRYASWYQQKPGQSPVLVIYQDTKRPSGIPERFSGSNSGNTATLTISGTQAMDEADYYCQSWDSSAAVFGTGTKLTVL | 5.6 nM and 9.7 nM and 7.4 nM and 6 nM | –
αF1Ig AM8 (antibody, V domains shown, also called aF1Ig AM8; source: HEK293 cells, produced by ATUM; purified IgG) VH: QVQLQQWGAGLLKPSETLSLTCAVYGGSFSGYYWSWIRQPPGKGLEWIGEINRSGNTNYNPSLKSRVTISVDTSKNQFSLQLNSVTPEDTAVYYCARTRGYFDLWGRGTLVTVSS VL: QPVLTQSPSVSVSPGQTASITCSGDKLGGRYASWYQQKPGQSPVLVIYQDTKRPSGIPERFSGSNSGNTATLTISGTQAMDEADYYCQSWDSSAAVFGTGTKLTVL | 1.5 nM and 2.4 nM and 1.3 nM and 1.6 nM | –
αF1Ig 2 (antibody, V domains shown, also called aF1Ig 2; aF1_2; source: HEK293 cells, produced by ATUM; purified IgG) VH: QVQLVESGGGLVKPGGSLRLSCAASGFTFSDYYMSWIRQAPGKGLEWVSYISSSGSIIYYADSVKGRFTISRDNAKNSLYLQMNSLRAEDTAVYYCAKEIRRHDAFDIWGQGTMVTVSS VL: not shown | 2.2 nM and 1.3 nM and 2.8 nM and 1.2 nM | –
αF1Ig 8 (parental anti-F1 immunoglobulin G type 1) (antibody, V domains shown, IgG1; also called parental IgG 8; original anti-F1 IgG 8; source: HEK293 cells, produced by ATUM, purified IgG) VH: QVQLQQWGAGLLKPSETLSLTCAVYGGSFSGYYWSWIRQPPGKGLEWIGEINHSGNTNYNPSLKSRVTISVDTSKNQFSLQLNSVTPEDTAVYYCARTRGYFDLWGRGTLVTVSS VL: QPVLTQSPSVSVSPGQTASITCSGDKLGDRYASWYQQKPGQSPVLVIYQDTKRPSGIPERFSGSNSGNTATLTISGTQAMDEADYYCQSWDSSAAVFGTGTKLTVL | – | 7.4 nM
αF1Ig AM8 (affinity matured anti-F1 immunoglobulin G type 1) (antibody, V domains shown, IgG1; also called aF1Ig AM8; αF1 AM8; source: HEK293 cells, produced by ATUM, purified IgG) VH: QVQLQQWGAGLLKPSETLSLTCAVYGGSFSGYYWSWIRQPPGKGLEWIGEINRSGNTNYNPSLKSRVTISVDTSKNQFSLQLNSVTPEDTAVYYCARTRGYFDLWGRGTLVTVSS VL: QPVLTQSPSVSVSPGQTASITCSGDKLGGRYASWYQQKPGQSPVLVIYQDTKRPSGIPERFSGSNSGNTATLTISGTQAMDEADYYCQSWDSSAAVFGTGTKLTVL | – | 1.9 nM
αF1Ig 2 (parental anti-F1 immunoglobulin G type 1) (antibody, V domains shown, IgG1; also called parental IgG 2; original anti-F1 IgG 2; source: HEK293 cells, produced by ATUM, purified IgG) VH: QVQLVESGGGLVKPGGSLRLSCAASGFTFSDYYMSWIRQAPGKGLEWVSYISSSGSIIYYADSVKGRFTISRDNAKNSLYLQMNSLRAEDTAVYYCAKEIRRHDAFDIWGQGTMVTVSS VL: not shown | – | 1.9 nM
αF1Ig AM2 (affinity matured anti-F1 immunoglobulin G type 1) (antibody, V domains shown, IgG1; also called αF1 AM2; source: HEK293 cells, produced by ATUM, purified IgG) VH: QVQLVESGGGLVKPGGSLRLSCAASGFTFSDYYMSWIRQAPGKGLEWVSYISGSGSIIYYADSVKGRFTISRDNAKNSLYLQMNSLRAEDTAVYYCAKEIRKHDAFDIWGQGTMVTVSS VL: DIRMTQSPSSLSASVGDRVTITCRASRSISGYLNWYQQKPGKAPKLLIYATSSLQSGVPSRFSGSGSGTDFTLTISSLQPEDFATYYCQQSYSTPSSFGQGTKVDIK | – | 2.7 nM
